Laboratory results published in article PMC11267573, “A Robust α-L-Fucosidase from Prevotella nigrescens for Glycoengineering Therapeutic Antibodies” (ACS Chemical Biology, 2024).

Experiments:
Assay in all cases: p-nitrophenol release, initial-rate kinetics
MBP-PnfucA = target: T1, MBP-PnfucA (Prevotella nigrescens, UniProt V8CPU0); assay type: biochemical; conditions: assay details in supplement; MBP fusion
T1 construct: gene HMPREF1173_00896; pMAL-c4X, E. coli; poor purity
Description: p-nitrophenol release, initial-rate kinetics on MBP-PnfucA

MBP-AlfC = target: T2, MBP-AlfC (Lacticaseibacillus paracasei, UniProt A0A422MHI3); assay type: biochemical; conditions: assay details in supplement; MBP fusion
T2 construct: gene BN194_28780; pMAL-c4X, E. coli; codon-optimized synthetic gene
T2 sequence (A0A422MHI3 1-344): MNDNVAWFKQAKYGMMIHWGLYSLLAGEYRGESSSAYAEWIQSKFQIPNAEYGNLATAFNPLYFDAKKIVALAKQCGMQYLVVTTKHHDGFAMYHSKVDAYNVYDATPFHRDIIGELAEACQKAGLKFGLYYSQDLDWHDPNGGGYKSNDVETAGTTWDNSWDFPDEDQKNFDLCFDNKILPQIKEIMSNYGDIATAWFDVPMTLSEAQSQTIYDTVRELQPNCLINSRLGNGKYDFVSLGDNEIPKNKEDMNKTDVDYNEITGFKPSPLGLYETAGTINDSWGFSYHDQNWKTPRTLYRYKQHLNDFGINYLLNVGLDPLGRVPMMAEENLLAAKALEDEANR
Description: p-nitrophenol release, initial-rate kinetics on MBP-AlfC

[1] = substrate: C[C@@H]1O[C@@H](Oc2ccc([N+](=O)[O-])cc2)[C@@H](O)[C@H](O)[C@@H]1O; assay type: biochemical, Prevotella nigrescens; conditions: assay details in supplement
Description: p-nitrophenol release, initial-rate kinetics on Δ20PnfucA

| Molecule | Km (MBP-PnfucA) [µM] | Km (MBP-AlfC) [µM] | Km [1] [µM] | kcat [1] [s⁻¹] | kcat/Km [1] [M⁻¹ s⁻¹] |
| --- | --- | --- | --- | --- | --- |
| C[C@@H]1O[C@@H](Oc2ccc([N+](=O)[O-])cc2)[C@@H](O)[C@H](O)[C@@H]1O [pNP-Fuc] | 250 ± 20 | 620 ± 60 |  |  |  |
| Δ20PnfucA (Prevotella nigrescens CC14M) (protein, 20 N-terminal residues (signal peptide) removed; apparent mass ~52 kDa; codon-optimized synthetic gene) QTNSQQQESNNRATTTESVPQKYIPTAENLAARKRFEGFRFGIFLHWGIYSTFAQGEWYLNNKINKDEYAKAASAFYPSYFDADAWISAIKASGAKYITFTSRHHDSFSMFKTKESNYNIVDATPFKRDVLKELANACHKQNIDLHIYYSILDWIREDYPIGRTGLYTGRKLKPNYGTYFNFMKGQVSELLHNYGKVGAIWLDGYWDHDSDSIPFDWRMEEFYRYIHSIQPACLIGNNHHIAPIDGEDFQMFERDLPGENKAGLSGQAISRLPLEACQTMNGMWGYKVSDINYKSTSQLIELLVRSAAKGSNLLLNIGPQPNGELPALALDRLQGIGKWMQQYGETIYETMAGDVAEADWGVSTSKGKKTYLHVLEQDAKTISCALSVKPKRVIDFASRQPLSFHYDKKTKTLTTHIGSHRNVVDYIIEIEK |  |  | 560 ± 50 | 66.5 ± 2 | 119000 |
